Each block holds one molecule with its values, some of them ahead of it.
Columns and labels:
[1] = molecular target: BZU3 (maize UDP-glucose 4-epimerase), recombinant 6×His-BZU3 (maize); assay: crystal structure; BZU3 (~5.0 mg/ml) crystallised by sitting-drop vapor diffusion, 100 mM sodium malonate pH 5.0, 12~16% PEG3350; apo form and crystals soaked with 5 mM UDP-Glc or UDP-GlcNAc
[2] = molecular target: T1, BZU3 (Zea mays, UniProt C0HI30); assay: X-ray crystal structure; type: binding; conditions: no ligand soak for 7XPP; with UDP-Glc 7XPO; with UDP-GlcNAc 7XPQ
T1 construct: gene ZEAMMB73_Zm00001d029151; residues 1-189 NAD domain, 190-355 sugar domain; homo-dimer
T1 sequence (C0HI30 1-355): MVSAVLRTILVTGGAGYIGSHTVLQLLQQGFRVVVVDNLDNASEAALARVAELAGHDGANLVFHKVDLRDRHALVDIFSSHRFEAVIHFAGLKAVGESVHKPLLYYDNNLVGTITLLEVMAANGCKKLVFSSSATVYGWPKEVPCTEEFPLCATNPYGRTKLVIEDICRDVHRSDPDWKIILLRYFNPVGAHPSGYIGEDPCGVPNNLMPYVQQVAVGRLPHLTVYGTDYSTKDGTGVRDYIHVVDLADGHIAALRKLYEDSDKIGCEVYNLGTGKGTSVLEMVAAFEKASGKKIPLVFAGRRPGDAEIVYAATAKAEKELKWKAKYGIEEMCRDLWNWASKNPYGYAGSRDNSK

[3] = molecular target: T1, BZU3; assay: X-ray crystal structure, […] Å, soaked with […] ligand; type: binding; conditions: ternary complex with NAD+, crystals at pH 5.0
[4] = substrate: O=c1ccn([C@@H]2O[C@H](CO[P@@](=O)(O)O[P@@](=O)(O)O[C@H]3O[C@H](CO)[C@@H](O)[C@H](O)[C@H]3O)[C@@H](O)[C@H]2O)c(=O)[nH]1; assay: HPLC of UDP-Glc/UDP-Gal, Michaelis-Menten; type: biochemical, Zea mays; conditions: 10 mM Tris-HCl pH 8.0, 30 °C, 25 nM enzyme, 1 min
[5] = substrate: O=c1ccn([C@@H]2O[C@H](COP(=O)(O)OP(=O)(O)O[C@H]3O[C@H](CO)[C@H](O)[C@H](O)[C@H]3O)[C@@H](O)[C@H]2O)c(=O)[nH]1; assay: HPLC of UDP-Glc/UDP-Gal, Michaelis-Menten; type: biochemical, Zea mays; conditions: 10 mM Tris-HCl pH 8.0, 30 °C, 25 nM enzyme, 1 min
[6] = substrate: CC(=O)N[C@H]1[C@@H](OP(=O)(O)OP(=O)(O)OC[C@H]2O[C@@H](n3ccc(=O)[nH]c3=O)[C@H](O)[C@@H]2O)O[C@H](CO)[C@H](O)[C@@H]1O; assay: HPLC of UDP-GlcNAc/UDP-GalNAc, Michaelis-Menten; type: biochemical, Zea mays; conditions: similar protocol (10 mM Tris-HCl pH 8.0, 30 °C)
[7] = substrate: CC(=O)N[C@H]1[C@@H](OP(=O)(O)OP(=O)(O)OC[C@H]2O[C@@H](n3ccc(=O)[nH]c3=O)[C@H](O)[C@@H]2O)O[C@H](CO)[C@@H](O)[C@@H]1O; assay: HPLC of UDP-GlcNAc/UDP-GalNAc, Michaelis-Menten; type: biochemical, Zea mays; conditions: similar protocol (10 mM Tris-HCl pH 8.0, 30 °C)

- stoichiometry N [1]: 2
Molecule: BZU3 (maize UDP-glucose 4-epimerase), recombinant 6×His-BZU3 (enzyme)

Molecule: NC(=O)c1ccc[n+]([C@@H]2O[C@H](COP(=O)(O)OP(=O)(O)OC[C@H]3O[C@@H](n4cnc5c(N)ncnc54)[C@H](O)[C@@H]3O)[C@@H](O)[C@H]2O)c1 [NAD^+]
- X-ray crystal structure [2]: both Y157 and K161 directly interact with the ribose moiety of NAD^+

Molecule: CC(=O)N[C@H]1[C@@H](OP(=O)(O)OP(=O)(O)OC[C@H]2O[C@@H](n3ccc(=O)[nH]c3=O)[C@H](O)[C@@H]2O)O[C@H](CO)[C@@H](O)[C@@H]1O [UDP-GlcNAc]
- X-ray crystal structure, 2.15 Å, soaked with 5 mM ligand [3]: The structure of BZU3 in complex with NAD^+/UDP-GlcNAc was similar to that of BZU3/NAD^+/UDP-Glc

B1: BZU3 (Zea mays) (protein)
chain: T1 sequence (C0HI30 1-355)
notes: residues 1-189 NAD domain, 190-355 sugar domain; homo-dimer
- Km [4]: 2670 µM
- Km [5]: 1450 µM
- Km [6]: 500 µM
- Km [7]: 400 µM

Reference: PMC10359280, “A maize epimerase modulates cell wall synthesis and glycosylation during stomatal morphogenesis” (Nature Communications, 2023)
